Laboratory results reported in US7598225B1 (priority 1995, dated 2009).

How the values were obtained:
[1] = test system: PBMC from donors expressing the HLA A2 class 1 allele; type: cell-based, human
human HLA A2 molecules = human HLA A2 molecules (Homo sapiens, UniProt P04439, /I121R/I166T/I218V/L300P/L318F/N151K/N90K/P208A/P217A/Q86G/Q94H/R138H/R169H/T345S); type: binding

| Substance | T cell lines from PBMC of two prostate cancer patients [1] | score in T2 cell binding assay (human HLA A2 molecules) |
| --- | --- | --- |
| PSA 154-163: PSA peptide, amino acids 154-163, sequence V I S N D V C A Q V (Table 7) (VISNDVCAQV) | established | positive |
| PSA 141-150: PSA peptide, amino acids 141-150, sequence F L T P K K L Q C V (Table 7) (FLTPKKLQCV) | – | positive |
| PSA 146-154: PSA peptide, amino acids 146-154, sequence K L Q C V D L H V (Table 7) (KLQCVDLHV) | – | positive |
